Results as given in patent publication US20120301897A1, “ACETAMINOPHEN-PROTEIN ADDUCT ASSAY DEVICE AND METHOD” (BOARD OF TRUSTEES OF THE UNIVERSITY OF ARKANSAS, priority 2008, published 2012).

Tests used:
[1] = human, in vivo
Protocol: Serum samples were analyzed for acetaminophen-protein adducts (as measured by acetaminophen-cysteine or APAP-CYS) using a high-performance liquid chromatography with electrochemical detection (HPLC-EC) method. All serum samples were dialyzed, treated with protease, and then precipitated with trichloracetic acid.
The severity of liver injury was stratified by the highest recorded value for AST concentration.
The subgroups were based on the severity of toxicity defined as the highest recorded value for AST concentration for each patient over the period of hospitalization.

[2] = under overdose conditions; cited from earlier work

| Compound | mean (±SD) half-life of adducts in serum [1] [h] | reported elimination half-life [2] |
| --- | --- | --- |
| 3-(cystein-S-yl) APAP (3-Cys-A)-protein adducts [APAP-protein adducts] | 35.3 ± 7.2 |  |
| CC(=O)Nc1ccc(O)cc1 [APAP, Acetaminophen] |  | about 18 hours |
